Test results published in the DeepSol protein solubility set.

Test: soluble on expression in E. coli; label from the status in PepcDB or PDB records

| Sequence | soluble on expression in E. coli |
| --- | --- |
| MGSDKIHHHHHHMYKNSMVIGKFYPPHAGHAHLINTAAAQSENVSVLVLGNRFESITVADRTTWLAAEFEDIAGVHVIGMPNDCPEDYDSEEIWKAQSELMRLALKTHGVTEVEAVFSSEEYGAQLAQAFGAEHVLVDQSRTTFPISGTLCRDDLGSAWPFIIGPARQGLATRIILVGAESSGTSTLAKALTEHYRPRFPGITDVPEYGRDYTYEKFDALRAKMPEAVLEDMVWNEQDFGRIATRQNEMENAAADACPLVIADTDSLATTLWERFYIGERSYGSYLAASNLPPRDLYLITDHEGVEFEDDGWREGEHRRAEMTEWFKEALTAEGHSWILVSGDHERRKQTAVEIIELILMQRSKFTSPPWATRTVLEGAAV | not soluble |
| MSTHFGYKTVEADKKADLVAGVFHSVAAKYDIMNDVMSFGIHRFWKRYTIEVSGARPGMKVLDLAGGTGDLTAKFSHLVGDKGEVVLADINDSMLKVGRTKLRDRGIVSNVSYVQANAEALPFPDNHFDIITIAFGLRNVTDKDAALRSMNRVLKPGGKLLVLEFSKPQHEVMRKVYDLYSFKVLPKMGQLITKDADSYEYLAESIRMHPDQDTLKQMMVDAGFEQVDYTNMTDGIVALHRGYKLEHHHHHH | not soluble |
| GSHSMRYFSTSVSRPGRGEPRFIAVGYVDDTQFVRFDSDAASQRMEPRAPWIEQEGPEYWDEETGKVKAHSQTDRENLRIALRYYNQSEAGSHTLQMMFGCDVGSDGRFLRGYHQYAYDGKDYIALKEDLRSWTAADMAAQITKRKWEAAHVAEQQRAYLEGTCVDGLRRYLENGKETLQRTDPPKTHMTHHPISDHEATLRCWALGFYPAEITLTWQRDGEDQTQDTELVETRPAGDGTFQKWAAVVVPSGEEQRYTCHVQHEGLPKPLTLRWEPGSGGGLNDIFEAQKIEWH | soluble |
| MGSDKIHHHHHHMTTLNSEKVFRDPILGFIHVDDSIILDLINSHEMQRLRRIKHLGVANSVFHGGEQSRFQHSLGVYEISRRMIQALDDNEKFANERHWDHENDLLVQAAALLHDVGHGAYSHTFEHLFDTVHEQFTQKIIVDPSTEVNAILKTVSNDFPERVAAVIGKSYPDKRVVQLISSQLDADRMDYLLRDAYYTGAEYGRYDIERILRLMRPIKDGFAFDIAGVHSIEDYVISRYQMYLQVYFHPVSRGMEVVLENLLIRAQDIFDKDPDNPIFFPIIRPIFALKNKIDIQDYISLDDSVFNTAFNIWQKVDDKILADLSKRFLDRKPLKSIVLNEKTKDLIPSLRKKIKDRGFDPKYYTGENDATDLPYESYSPKTGEEGIKFVYPDGQQVELSKLSPLVEAINGKESIDRRFFFPREMLSNPEINQLYLKYKKTY | not soluble |
| MSLSITFFVTGDNHLGYYEKNLTLKDDCYKLFEQYLKEATQKEGSILLQCGDLFNDLRPNKSCVSKTANLIKKYCIGDADIPYTIKDEAELSYPLNITDPYINVKHPLFTIHGTNDEPSGYKLIAGSEILASCGLVNYISPKSFEEEKMLKPVIIVNEHTKIALYGLSVLYSSDLDEIVEDETFHIKKPNGNDWICILLLYIGKGTISQTTKDIIEKHFNIIILGGQHSCNIPTGDFNGSVIIQPGSPFFLSFDEYDEIKKGFVKIVVEGQKIYIEKKEYKPIHRMIKKEVYIPETLRDCVISKRIEDFIQQEMKKCITEAVIKENEQILLKLIVKDCNQDCYPDTKKISSLLEEDVVNFIDCIKVKKEGHHHHHH | not soluble |
| IDSGLSPSVLMASNSGRRSAPPLNLTGLPGTEKLNEKEKELCQVVRLVPGAYLEYKSALLNECHKQGGLRLAQARALIKIDVNKTRKIYDFLIREGYITKA | soluble |
| MLFVLILSHRAASYGAIMAALPYMQLYIADYLADTMHLSAEEHGAYLLLMFNYWQTGKPIPKNRLAKIARLTNERWADVEPSLQEFFCDNGEEWVHLRIEEDLASVREKLTKKSAAGKASVQARRSRKEADVQTKQERNLTGVQTDVEVVFEHDVNTKATNKDTDKDLKTDPPLNPPRGNRGVKKFDPLDITLPNWISVSLWREWVEFRQALRKPIRTEQGANGAIRELEKFRQQGFSPEQVIRHSIANEYQGLFAPKGVRPETLLRQVNTVSLPDSAIPPGFRG | not soluble |
| MSSRAVSLLSRVISQNRGLASLRETVGERDASLLYEPKFQDSREFPEYNTINVRIQGHDFGSLEKYQAYIHKTAKRFGFTVVDSYAVAAQTQKAITYKPYSTVSESEIDMSTYDRVVRLSDVAAPRFSLFSQIIRAHIPIGVTMTVKEHEKVDEDSRYIPDLLLKQKQEELKALDDPNVRRNLGWE | not soluble |
| MRFKAELMNAPEMRRALYRIAHEIVEANKGTEGLALVGIHTRGIPLAHRIARFIAEFEGKEVPVGVLDITLYRDDLTEIGYRPQVRETRIPFDLTGKAIVLVDDVLYTGRTARAALDALIDLGRPRRIYLAVLVDRGHRELPIRADFVGKNVPTSRSEVVKVKVEEVDGEDRVELWEREGA | soluble |
| MSLSYRIDVLLFNKFETLDVFGPVEIFGNLQDDFELNFISSDGGLVESSQKVRVETSLYTRDENIEKILFVPGGSGTREKVNDDNFINFIGNMVKESKYIISVCTGSALLSKAGILNGKRATTNKRSFKWVTEQNEDVLWVKEARWVKDGNIYTSSGVSAGIDMTLGFIEDLIGKEKALEISRSIEYFWNEDSNYDPFSKIYGEGHHHHHH | soluble |
| MAILKAQHLAKSYKKRKVVSDVSLQVESGQIVGLLGPNGAGKTTSFYMIVGLVARDEGTITIDDNDISILPMHSRSRMGIGYLPQEASIFRKLSVEDNIMAVLQTREELTHEERQDKLEDLLEEFHIQHIRKSAGMALSGGERRRVEIARALAANPQFILLDEPFAGVDPISVIDIKKIIEHLRDRGLGVLITDHNVRETLDVCEKAYIVSQGRLIAEGTPQDVLNNEQVKQVYLGEQFRL | not soluble |
| MISNQVLQNTLEGLKEISRTEFCIIDTEGKVLATTFADFSIQPGDIQAFVESQADSQLVKGFQYFKVCDDYQLEYILVAHGDDEDTYMVGKLAAFQIQNLIVAYKERFDKDSFIKNLLLDNLLLVDIYNRAKKLHIDADVRRVVMILELQQEKDHSSMESVKSFFGGKSKDFITAVDEKSIIIVKELEDGEGYAEMDKLAHAILDTLGLNQNEETHIAYGTIVNELKEVSRSYKEARMALDVGKIFFGEKDVIAYSSLGIGRLIYQLPIPLCKMFIKEIFENKSPDDFDEETLVTIDKFFENSLNVSETSRQLYIHRNTLVYRLDKLQKSTGLDLRVFEDAITFKIALMVVRYMKYMETLEY | not soluble |
| MKSRTRWLTSEELVTLFEAMRQAPGFSVENGLSIKLLLLLAVRKGELIGARWSEFDLDKAVWYLPAERTKTESAIDIPLPPIAVEWLRELQRLAGVSKWVLPARKMQDRMIPHIAESTLSVALAKIKHGLEPFTIHDLRRTARTHFEALGVAPHIAERCLNHKIKGIEGIYNRHDYFEERKAALEAWAGLLLQIERGEADKVVPIRRAVATKQLEHHHHHH | not soluble |
| MPKIVILPHQDLCPDGAVLEANSGETILDAALRNGIEIEHACEKSCACTTCHCIVREGFDSLPESSEQEDDMLDKAWGLEPESRLSCQARVTDEDLVVEIPRYTINHAREH | soluble |
| NRYAKILVEKEKNRRTVMEQKMELESYKKVNVANDRYITLLHDTNHHIKTVYSLLKKDKKDDAMNMLSKLFDKYEKAEMIEYSGNTILNTILSDYKEKSSKENIECDIFVERGFNIEYVDEIDLVAMLSNLLSNSYEAAAKSDMKKIRIQMFMQNDGSFSVIKIENSYTSMIVEEDSVLKTTKQNKEFHGLGIKSVQQIAEKYNGWLSSTWSDNVFKSVLILENSMC | not soluble |
| MDHPDPNKWADCVHCGMCLEACPTYELTGHEQQSPRGRVHLIKSVAEGKLEVNEAFADPVFTCLDCRACETACPADVEVGGLIEEARGQIRQALPLEHHHHHH | soluble |
| MGSDKIHHHHHHMEIGIIGTGNIGGTLARKLIAAGHQVRVANSKGIHGVQSFADEIGATAVDVYGAVKGADAIILSIPLPALASLPNGFFDDLPETVPLIDTSNYYPGLRDPLIPEIDDGMTESVWVSQQLSHPVIKAFNNILAWSLAELGTPKGSASRLAIAVAGDNATLKQIVMNLVDDTGFDAIDAGSLEESWRQQPSTPAYCCDYDAETMKKGLTAAVRGEAASKRDRLPELFGKLGANPTHEDIVAMNRSLNP | not soluble |
| IGQVNLQLRANFTYQTTDIIDKDEAANELWYKMDKGFQLNQSRGLIALGLFKDQDEIDRSPKQTSNRPILPGDIKYKDVNGDGVINDDDIVPLGYREVPGLQYGVGLSANWRNWNLSVLFQGTGKCDFFIGGNGPHAFRSERYGNILQAMVDGNRWIPKEISGTTATENPNADWPLLTYGNNDNNNRKSTFWLYERKYLRLRNVEVSYDFPQTWTRKFFVSNLRLGFVGQNLLTWAPFKMWDPEGTREDGSNYPINKTFSCYLQISF | not soluble |
| PLVCLADFKAHAQKQLSKTSWDFIEGEADDGITYSENIAAFKRIRLRPRYLRDMSKVDTRTTIQGQEISAPICISPTAFHSIAWPDGEKSTARAAQEANICYVISSYASYSLEDIVAAAPEGFRWFQLYMKSDWDFNKQMVQRAEALGFKALVITIDTPVLGNRRRDKRNQLNLEANILLKDLRALKEEKPTQSVPVSFPKASFCWNDLSLLQSITRLPIILKGILTKEDAELAMKHNVQGIVVSNHGGRQLDEVSASIDALREVVAAVKGKIEVYMDGGVRTGTDVLKALALGARCIFLGRPILWGLACKGEDGVKEVLDILTAELHRCMTLSGCQSVAEISPDLIQFSRL | soluble |
| MNSENSKWQAIQESTFALARKCEEFDSDGITVYLFSKTFQRYDYVNSAKVKQLFAENSPSETTNLVGVLQDAINSYFQRKSLGKTKPAGEVILVITDGAPVDSQAVCEVIIKATHLVESANELRISIIQVGSDSHATKFLKALDDHLQSVGAKFDICDTITLDELEITNLSDVLMKAITDLEHHHHHH | not soluble |
| MIIVRLCGGLGNQMFQYAAGLAAAHRIGSEVKFDTHWFDATCLHQGLELRRVFGLELPEPSSKDLRKVLGACVHPAVRRLLSRRLLRALRPKSLVIQPHFHYWTGFEHLTDNVYLEGYWQSERYFSNIADIIRQQFRFVEPLDPHNAALMDEMQSGVSVSLHIRRGDYFNNPQMRRVHGVDLSEYYPAAVATMIEKTNAERFYVFSDDPQWVLEHLKLPVSYTVVDHNRGAASYRDMQLMSACRHHIIANSTFSWWGAWLNPRPDKVVIAPRHWFNVDVFDTRDLYCPEWIVLLEHHHHHH | soluble |
| MEERNEQVVEEVKEAQVEEAVTPENSEETVEEKSEAALLQEKVDELQAKLTETEGRTLRLQADFENYKRRVQMDKQAAEKYRAQSLVSDILPALDNFERAMQVEATDEQTKSLLQGMEMVHRQLLEALNKEGVEVIEAVGKQFDPNEHQAIMQVEDSEFESNAVVEEFQKGYKLKDRVIRPSMVKVNQ | not soluble |
| MGSDKIHHHHHHMMNQFFEPPRVEALHVQNYRALQNVRLDSITPLTVLLGPNGSGKSTLVDVFAFLSECFGEGLRKAWDRRGRFRELRSRDSVGPIVIELQYREKPGTPLITYHLEIDEKDRGPVVKREFLRWKRTHPGAPFYFLDYREGVGRVITGEQPESQDKRIEKPLSGPDVLAVNTLGQLAENPRVIALRAFITSWHLSYLSADAARGNPEAGAEERLSQTGDNLANVIQYLGEEHPERLNKIFETLKRRVPRIEKVTSRPLDDGRLLLQVKDAPFSSPVLARFASDGTLKMLAYLILLYDPEPPQLIGIEEPENYLHPRLLPELAEECDMASERTQLIVTTHSPFFIDRLRPEQVRVLYRGADGYTRAKRVADMRGIGEFLEAGASLGDLWMEGHFDVGDPLAGEEGA | not soluble |
